Laboratory results reported in patent publication US20260115290A1.

Target: HLA-DR on K562-CD19-HLA-DR cells (alpha chain UniProtKB-P01903, beta chain UniProtKB-P04229) (human) (UniProt P01903)
Assay: cell-based or functional assay

“anti-HLA-DR iCAR (FLAG tag, scFv of antibody 1D09C3, PD-1 hinge, transmembrane and intracellular domains) (from UniProt Q15116 145-288) (receptor)” was tested, and the CD107a+ population, single against dual CAR-NK cells, K562-CD19-HLA-DR target cells was 2 to 3 fold and the IFN-γ production (ELISA), dual against single CAR-NK cells with K562-CD19-HLA-DR cells was 70 % reduction.
